Data on two molecules can be found in patent publication US20180194851A1 (Pfizer, published 2018).

In experiment [1] the target is T1, Recombinant human 4-1BB/Fc Chimera (R&D Systems #838-4B) (human, UniProt Q07011 24-186).
T1 construct: Bought protein; also called Human 4-1BB IgG1Fc chimera; not shown: Factor Xa-cleavable junction, human IgG1 Fc and 6xHistidine tag of the bought chimera
In words: ELISA on directly coated human 4-1BB/Fc.

For experiment [2], the target named is T2, human 4-1BB on cells (human, UniProt Q07011 18-255).
T2 construct: Expressed on stably transfected HEK293/HEK293T cells, transduced 300-19 cells or PHA stimulated human PBMC; also called h41BB; hu4-1BB
Briefly: FACS on HEK293 cells expressing human 4-1BB.

The target in experiment [3] is T3, human 4-1BB (recombinant antigen, construct not stated) (human, UniProt Q07011 24-186).
T3 construct: It may be the 4-1BB/Fc chimera; also called CD137/HUMAN 4-1BB; unlabeled human 4-1BB
In words: SPR (Biacore 3000), Fab analyte on amine-coupled human 4-1BB. (SPR reads the build-up and loss of mass on a sensor chip optically.)

The target in experiment [4] is T3, human 4-1BB (recombinant antigen, …). In words: solution equilibrium titration (SET), MSD electrochemiluminescence.
For experiment [5], the target named is T2, human 4-1BB on cells. In words: FACS on transfected cells.
Experiment [6] deals with T4, Hu41BB N&E.5 (human, UniProt Q07011 18-255).
T4 construct: Human-to-dog mutant of the human 4-1BB extracellular domain, expressed on transduced 300-19 cells; also called 4-1BB Mutant N&E.5
T4 chain: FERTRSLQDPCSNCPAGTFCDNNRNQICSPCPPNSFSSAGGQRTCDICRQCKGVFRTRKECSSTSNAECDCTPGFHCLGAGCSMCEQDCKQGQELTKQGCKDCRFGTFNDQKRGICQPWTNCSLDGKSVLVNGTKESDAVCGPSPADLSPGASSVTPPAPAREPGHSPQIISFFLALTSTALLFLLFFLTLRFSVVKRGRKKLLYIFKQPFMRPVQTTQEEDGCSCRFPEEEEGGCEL
In words: FACS dose response on 300-19 cell pools.

A further experiment addresses T5, CD40 on 300.19 cells (UniProt P25942 21-277, limits assumed).
T5 construct: whole, on cells; also called TNFRSF5; 300.19 CD40
In words: FACS on 300.19 cells expressing CD40.

For the next experiment, the target named is T6, OX-40 on 300.19 cells (UniProt P43489 29-277, limits assumed).
T6 construct: whole, on cells; also called CD134; TNFRSF4
T6 sequence (looked up): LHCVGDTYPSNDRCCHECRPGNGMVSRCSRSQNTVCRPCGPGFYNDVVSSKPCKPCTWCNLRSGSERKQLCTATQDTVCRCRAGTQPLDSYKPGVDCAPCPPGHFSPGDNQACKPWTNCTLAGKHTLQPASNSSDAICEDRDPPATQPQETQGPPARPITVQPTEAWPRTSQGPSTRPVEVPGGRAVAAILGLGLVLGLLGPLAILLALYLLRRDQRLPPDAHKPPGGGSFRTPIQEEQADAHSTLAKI
Briefly: FACS on 300.19 cells expressing OX-40.

The target of experiment [7] is T1, Recombinant human 4-1BB/Fc Chimera (R&D …). Briefly: ELISA on coated human 4-1BB IgG1Fc chimera. A general note: An ELISA detects its analyte on a solid surface through an enzyme-linked reagent.
Experiment [8] shares this target. In words: ELISA on directly coated human 4-1BB/Fc, IgG1.
For experiment [9], the target named is T2, human 4-1BB on cells. Briefly: FACS on HEK293T cells expressing human 4-1BB, IgG1.
The target in another experiment is T7, Hu41BB N&E (human, UniProt Q07011 18-255).
T7 construct: Human-to-dog mutant of the human 4-1BB extracellular domain, expressed on transduced 300-19 cells
T7 chain: T4 chain with N13K, A39T, G40S, R43K, T44A, Q98K, R104C, Q117R, S137R, A139V
Briefly: FACS, 100 nM antibody, transduced 300-19 cell pools. For orientation: In flow cytometry, cells or beads pass a laser one at a time.

The next experiment concerns the target T8, Hu41BB N&E.1 (human, UniProt Q07011 18-255).
T8 construct: Human-to-dog mutant of the human 4-1BB extracellular domain, expressed on transduced 300-19 cells
T8 chain: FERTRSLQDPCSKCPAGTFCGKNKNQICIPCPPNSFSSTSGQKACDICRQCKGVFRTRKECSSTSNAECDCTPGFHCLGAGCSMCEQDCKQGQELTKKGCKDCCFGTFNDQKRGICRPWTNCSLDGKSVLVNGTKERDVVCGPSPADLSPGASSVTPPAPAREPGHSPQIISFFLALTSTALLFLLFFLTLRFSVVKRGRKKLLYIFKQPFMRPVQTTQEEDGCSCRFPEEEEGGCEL
The description is as above.

In the next experiment the target is T9, Hu41BB N&E.2 (human, UniProt Q07011 18-255).
T9 construct: Human-to-dog mutant of the human 4-1BB extracellular domain, expressed on transduced 300-19 cells
T9 chain: T8 chain with G21D, K22N, K24R, I29S, K52E, R58K, E60V
The description is as above.

The next experiment addresses T10, Hu41BB N&E.3 (human, UniProt Q07011 18-255).
T10 construct: Human-to-dog mutant of the human 4-1BB extracellular domain, expressed on transduced 300-19 cells
T10 chain: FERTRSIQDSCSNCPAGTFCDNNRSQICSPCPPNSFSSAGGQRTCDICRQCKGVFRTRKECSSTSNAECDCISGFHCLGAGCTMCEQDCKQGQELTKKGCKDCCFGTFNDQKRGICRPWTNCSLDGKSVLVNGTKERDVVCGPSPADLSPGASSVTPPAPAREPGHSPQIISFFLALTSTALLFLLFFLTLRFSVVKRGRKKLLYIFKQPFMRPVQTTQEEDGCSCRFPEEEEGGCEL
The experiment is described as above.

The target of another experiment is T11, Hu41BB N&E.4 (human, UniProt Q07011 18-255).
T11 construct: Human-to-dog mutant of the human 4-1BB extracellular domain, expressed on transduced 300-19 cells
T11 chain: T8 chain with L7I, P10S, N25S, K52E, R58K, E60V, T72I, P73S, S83T
The experiment is described as above.

A further experiment deals with T12, Hu41BB N&E.6 (human, UniProt Q07011 18-255).
T12 construct: Human-to-dog mutant of the human 4-1BB extracellular domain, expressed on transduced 300-19 cells
T12 chain: T4 chain with Q98K, R104C, Q117R, S137R, A139V, S144A, P145S, D147G, L148F, A152T
The experiment is described as above.

The target of experiment [10] is T13, human 4-1BB extracellular portion, amino acids 24-186 (Fc cleaved off with Factor Xa) (human, UniProt Q07011 24-186).
T13 construct: Made from the R&D Systems 4-1BB/Fc chimera by Factor Xa cleavage; also called recombinant human 4-1BB; the 4-1BB
In words: SPR (Biacore 3000), antibody amine-coupled, 4-1BB 24-186 as analyte, 25 C.

The target in experiment [11] is T1, Recombinant human 4-1BB/Fc Chimera (R&D …). In words: ligand competition ELISA, 4-1BB_IgG1Fc to plate-bound 4-1BBL (competitor 4-1BBL).
Experiment [12] addresses T2, human 4-1BB on cells. In words: FACS dose response, Alexa Fluor 647 labelled antibody on 300-19 cells expressing human 4-1BB.
In experiment [13] the target is T4, Hu41BB N&E.5. Briefly: FACS dose response, Alexa Fluor 647 labelled antibody on 300-19 cells expressing mutant N&E.5.

Substitutions are numbered along the chain they refer to.

T5 sequence (P25942 21-277 limits assumed): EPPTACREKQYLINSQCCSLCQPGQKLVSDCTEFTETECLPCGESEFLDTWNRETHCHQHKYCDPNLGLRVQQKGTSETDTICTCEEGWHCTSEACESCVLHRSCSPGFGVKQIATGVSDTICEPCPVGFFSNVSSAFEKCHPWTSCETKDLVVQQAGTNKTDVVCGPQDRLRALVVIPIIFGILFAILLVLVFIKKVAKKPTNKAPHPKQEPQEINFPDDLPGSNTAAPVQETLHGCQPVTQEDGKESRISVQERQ

B1: Fab-7480 (Fab, V domains shown)
VH: QVQLVQSGAEVKKPGESLKISCKGSGYSFSTYWISWVRQMPGKGLEWMGKIYPGDSYTNYSPSFQGQVTISADKSISTAYLQWSSLKASDTAMYYCARGYGIFDYWGQGTLVTVSS
VL: DIELTQPPSVSVAPGQTARISCSGDNIGDQYAHWYQQKPGQAPVVVIYQDKNRPSGIPERFSGSNSGNTATLTISGTQAEDEADYYCATYTGFGSLAVFGGGTKLTVL
Regarding B1, the EC50 – broadly, the concentration giving half of the maximal effect – in experiment [1] was 0.7 nM; with human 4-1BB on cells [2], 0.9 nM. Also, the values for the Kd in experiment [3] and in experiment [4] were 0.5 nM and 0.046 nM, respectively.

B2: MOR-7480 (IgG1) (antibody, V domains shown)
VH: B1 VH
VL: B1 VL
notes: Human IgG1 format, lambda light chain
B2: the “fold selectivity for 4-1BB versus OX-40 and CD40” value with human 4-1BB on cells [5] is at least 100 fold. Also, the “fold decrease in binding against human 4-1BB” value with Hu41BB N&E.5 [6] is over 5 fold. Besides, the binding result in the experiment with CD40 on 300.19 cells is listed as “no binding (tested: 1000 nM)”; with OX-40 on 300.19 cells, “no binding (tested: 1000 nM)”; with Hu41BB N&E, “binds”; with Hu41BB N&E.1 it was “binds”; in the experiment with Hu41BB N&E.2, “binds”; in the experiment with Hu41BB N&E.3, “binds”. Also, the binding result with Hu41BB N&E.4 and with Hu41BB N&E.6 was “binds” each time. Also, the EC50 stood at 0.076 nM in experiment [7]; 0.7 nM in [8]; 0.6 nM with human 4-1BB on cells [9]; 1.68 nM with human 4-1BB on cells [12]; 12.3 nM with Hu41BB N&E.5 [13]. For the same molecule, binding in [10] was put at a Kd of 0.42 nM. For the same molecule, the koff (as a rule, the first-order rate constant of dissociation) in experiment [10] is 0.00015 s⁻¹. For the same molecule, the kon – broadly, the second-order rate constant of association – in [10] worked out at 360000 M⁻¹ s⁻¹. In [10], the t1/2 came to 1.37 h. Besides, the “% max inhibition” value in experiment [11] stood at 96%. Also, the IC50 (commonly the concentration at which inhibition is half-maximal) in [11] came to 0.122 nM.
